According to patent publication US20230338431:

Target: cAMP response element-binding protein 1 (CREB1) (UniProt P16220)
Sequence (P16220 whole entry): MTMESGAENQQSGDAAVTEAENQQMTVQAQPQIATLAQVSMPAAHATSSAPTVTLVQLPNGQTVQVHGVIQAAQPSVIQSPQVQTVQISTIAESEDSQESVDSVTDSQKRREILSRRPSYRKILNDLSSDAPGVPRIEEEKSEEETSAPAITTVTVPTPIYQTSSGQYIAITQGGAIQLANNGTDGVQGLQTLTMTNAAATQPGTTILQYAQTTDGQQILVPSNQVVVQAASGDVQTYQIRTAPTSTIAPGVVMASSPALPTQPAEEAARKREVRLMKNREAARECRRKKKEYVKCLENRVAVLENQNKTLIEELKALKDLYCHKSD

protein kinase B (AKT) subunit AKT1
p-CREB1 expression after siRNA against AKT1, AKT2 and AKT3, immunoblotting assay: only AKT1 phosphorylated and activated its downstream effector cAMP response element-binding protein 1 (CREB1)
